Patent publication US20190075806A1, “PROTEINASE B AND LACTASE SOLUTION USING ITS PROPERTIES AND METHOD FOR PRODUCING THE SAME” (GODO SHUSEI CO., LTD., priority 2016, published 2019)

Target: neutral lactase (GODO-YNL2; unfragmented high molecular fraction F-1, about 120 kDa) (yeast, Kluyveromyces genus) (UniProt P00723)
Experiment: cell-based or functional assay

neutral lactase (GODO-YNL2; unfragmented high molecular fraction F-1, about 120 kDa) (yeast, Kluyveromyces genus), sequence (P00723 whole entry, the tested form may be a part): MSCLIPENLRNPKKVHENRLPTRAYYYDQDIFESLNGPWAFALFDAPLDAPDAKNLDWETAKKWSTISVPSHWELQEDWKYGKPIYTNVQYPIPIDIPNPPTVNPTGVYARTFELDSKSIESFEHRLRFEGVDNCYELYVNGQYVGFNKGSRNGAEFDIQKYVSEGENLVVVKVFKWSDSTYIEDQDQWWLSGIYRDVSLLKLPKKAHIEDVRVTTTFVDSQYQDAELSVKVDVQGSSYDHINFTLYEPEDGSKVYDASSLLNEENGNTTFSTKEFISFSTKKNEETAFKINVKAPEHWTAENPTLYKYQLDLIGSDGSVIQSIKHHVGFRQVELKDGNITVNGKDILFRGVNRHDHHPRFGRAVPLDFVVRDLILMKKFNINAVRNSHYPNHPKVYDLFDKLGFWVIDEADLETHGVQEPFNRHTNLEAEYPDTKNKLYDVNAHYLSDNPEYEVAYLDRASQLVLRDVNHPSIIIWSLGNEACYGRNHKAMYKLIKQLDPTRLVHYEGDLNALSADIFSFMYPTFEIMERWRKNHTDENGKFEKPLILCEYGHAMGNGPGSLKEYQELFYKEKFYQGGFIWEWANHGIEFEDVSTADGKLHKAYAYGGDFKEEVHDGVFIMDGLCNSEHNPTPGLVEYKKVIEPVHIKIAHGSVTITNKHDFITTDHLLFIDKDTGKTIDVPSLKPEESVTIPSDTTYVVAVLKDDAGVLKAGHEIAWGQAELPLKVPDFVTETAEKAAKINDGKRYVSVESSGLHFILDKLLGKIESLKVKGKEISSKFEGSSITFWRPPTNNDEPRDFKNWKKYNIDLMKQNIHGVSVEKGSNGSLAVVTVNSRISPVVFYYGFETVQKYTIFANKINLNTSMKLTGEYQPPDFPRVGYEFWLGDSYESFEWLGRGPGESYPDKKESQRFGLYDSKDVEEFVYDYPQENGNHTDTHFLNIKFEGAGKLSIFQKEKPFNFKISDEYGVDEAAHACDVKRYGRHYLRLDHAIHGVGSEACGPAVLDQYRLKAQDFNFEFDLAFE

“proteinase B derived from Kluyveromyces lactis (mature enzyme)” was tested, and the amount of PrB not causing fragmentation of lactase (30° C., 20 hours, SDS-PAGE) was 0.26 ng per NLU.
